Assay results taken from PMC3844517.

Key:
Test in all cases: co-IP
[1] = target: Plk4-EGFP A18 (Drosophila) (UniProt O97143)
[2] = target: Plk4-EGFP A15 (Drosophila) (UniProt O97143)
[3] = target: Plk4-EGFP A19 (Drosophila) (UniProt O97143)
[4] = target: Plk4-EGFP A17 (Drosophila) (UniProt O97143)
[5] = target: Plk4-EGFP A16 (Drosophila) (UniProt O97143)
[6] = target: Plk4-EGFP A20 (Drosophila) (UniProt O97143)
[7] = target: Plk4-EGFP A26 (Drosophila) (UniProt O97143)

further fold decrease of Slimb binding (beyond A14) [1]: 2 fold
further fold decrease of Slimb binding (beyond A14) [2]: 2 fold
further fold decrease of Slimb binding (beyond A14) [3]: 2 fold
further fold decrease of Slimb binding (beyond A14) [4]: 2 fold
further fold decrease of Slimb binding (beyond A14) [5]: 2 fold
further fold decrease of Slimb binding (beyond A14) [6]: 2 fold
fold reduction in the amount of associated Slimb [7]: 5 fold
Substance: Slimb (F-box protein of the SCF ubiquitin ligase) (natural protein)
